# Where a chain is given by its changes, count along the chain named.
# B1: V-n7A12 anti-cMet VHH-Fc (Fc fusion, not shown: a dimerising Fc or GST)
# chain: EVQLVESGGGLVQAGGSLRLSCVASGNIFSSNHMGWFRQAPGKQREFIAYITTREITNYADSVKGRFTISRDNTKNTVYLQMNVLKPEDTAVYYCIADQSREIRRSWGQGTQVTVSS
# notes: Bivalent VHH-Fc
# B2: V-n9A2 anti-cMet VHH-Fc (Fc fusion, not shown: a dimerising Fc or GST)
# chain: QSQLAESGGGLVQSGGSLGLSCVASGFTISRSIMSWYRQPPGKERDWVASIGSAGNTNYVDSVKGRFTISRDVAKNTVYLQMNSLKPEDTAVYYCKTTLAVSFSEYWGQGTQVTVSS
# notes: Bivalent VHH-Fc
# B3: 7A12-M2 (VHH, not shown: small tags and cut ends)
# VHH: EVQLVESGGGLIQPGGSLRLSCKASGNIFSSNHMGWFRQAPGKQLEWVAYITTREITNYADSVKGRFTISRDNSKNTVYLQMNNLRSEDTAVYYCIADQSREIRRSWGQGTLVTVSS
# B4: 7A12-M3 (VHH, not shown: small tags and cut ends)
# VHH: B3 VHH with K23T, V48I, L112Q
# B5: 7A12-M4 (VHH, not shown: small tags and cut ends)
# VHH: B3 VHH with P14A, K23T, L45R, W47F, V48I
# notes: Humanized anti-cMet VHH-His
# B6: V-n7A12 anti-cMet VHH-His (VHH, not shown: small tags and cut ends)
# VHH: B1 chain
# notes: Monovalent parent VHH
# B7: dpzn7A12m4.ml_1.m1 (VHH, not shown: small tags and cut ends)
# VHH: B3 VHH with I12V, K23T, N32Y, L45R, W47F, V48I, V78L, N84S, S87A
# notes: Humanized + PTM removal + secondary immunogenicity removal, anti-cMet VHH-His; also called hu7A12
# B8: V-n9A2 anti-cMet VHH-His (VHH, not shown: small tags and cut ends)
# VHH: B2 chain
# notes: Monovalent parent VHH
# B9: VHH11 (VHH, not shown: small tags and cut ends)
# VHH: B2 chain with A5V, Q13K, S14P, G19R, V73N, T77S, V78L, K86R, P87A, Q112L
# notes: Humanized 9A2 anti-cMet VHH-His
# B10: Reference benchmark antibody ABT-700 (antibody, V domains shown)
# VH: QVQLVQSGAEVKKPGASVKVSCKASGYIFTAYTMHWVRQAPGQGLEWMGWIKPNNGLANYAQKFQGRVTMTRDTSISTAYMELSRLRSDDTAVYYCARSEITTEFDYWGQGTLVTVSS
# VL: DIVMTQSPDSLAVSLGERATINCKSSESVDSYANSFLHWYQQKPGQPPKLLIYRASTRESGVPDRFSGSGSGTDFTLTISSLQAEDVAVYYCQQSKEDPLTFGGGTKVEIKR
# B11: V-F42 (hu9B8_Fc)2 (Fc fusion, not shown: a dimerising Fc or GST)
# chain: EVQLLESGGGLVQPGGSLRLSCAASGLTFSYYAMAWFRQAPGKEREFVAAINWNQGNTYNTDSVKGRFTISRDNSKNTVYLQMNSLTPEDTAVYYCAVRYNQASYLVARSSDYNYWGQGTLVTVSS
# notes: dimeric VHH with an Fc tag at the C-terminus
# B12: anti-cMet biepitopic M-1 molecule (bispecific antibody, V domains shown)
# V domain 1: B2 chain
# V domain 2: B3 VHH with P14A, K23T, N32Y, L45R, W47F, V48I
# notes: Asymmetric double-chain form
# B13: 7A12-M1 (VHH, not shown: small tags and cut ends)
# VHH: B3 VHH with I12V, K23A, F37V, Q44G, N84S, S87A
# notes: Humanized anti-cMet VHH-His
# Experiments:
# EBC-1 = assay: Cell killing assay of ADCs (CCK8), EBC-1; assay type: cell-based, human; conditions: Table 10A; Target cell: EBC-1; 3-5 days
# Description: Killing of target cells MDA-MB-468, EBC-1, and NCI-H1975 cells (Cell Bank of the Chinese Academy of Sciences) by the ADC molecules formed by conjugating the […] anti-EGFR/cMet antibody molecules described above to a toxin was assayed by the […].
# The cells (100 µL, 1 × 10^4) resuspended in a cell culture medium were seeded into each well of a 96-well plate and cultured in an incubator at 37 °C with 5% CO2 overnight. The next day, 100 µL of serially diluted V-20-Fc-PEG-EVC-MMAE, V-23-Fc-PEG-EVC-MMAE, and V-26-Fc-PEG-EVC-MMAE, as well as positive control ADCs ABBV399 and AZD9592 were added to corresponding wells. The cells were cultured for another 3-5 days. Then, 20 µL of CCK8 (Shanghai Life iLab Biotech, Cat. No. AC11L054) was added to each well. The mixtures were cultured in an incubator at 37 °C with 5% CO2 until color development. The absorbance at 450 nm was recorded using a microplate reader (Molecular Device, SpectraMax M5).
# The cell viability was calculated by the following formula: percentage cell viability = [(As - Ab) / (Ac - Ab)] × 100. As = experimental well absorbance (cells, culture medium, CCK8, and ADCs); Ab = blank well absorbance (culture medium and CCK8); Ac = control well absorbance (cells, culture medium, and CCK8).
# human cMet on cells [1] = target: T1, human cMet on cells (human, UniProt P08581 25-1390); assay: FACS competition on EBC-1 cells, HGF-His as the ligand detected, VHH-Fc from 100 nM
# T1 construct: whole, on cells; Cell lines: CHO-S-cMet, CHOK1-hucMet, EBC-1, MKN45, NCI-H1975; the cell line is named under assay; also called CHO-S-cMet; CHOK1-hucMet
# Human cMet antigen [2] = target: T2, Human cMet antigen (human, UniProt P08581 25-932); assay: ELISA, antigen coated at 1 ug/mL, VHH-Fc titrated
# T2 construct: treated as one molecule; also called Human cMet-His antigen
# [3] = target: T3, Cynomolgus monkey cMet antigen (cynomolgus monkey, UniProt A0A2K5UM36 25-932); assay: ELISA, antigen coated at 1 ug/mL, VHH-Fc titrated
# T3 construct: treated as one molecule; also called cynomolgus monkey cMet-His antigen; Cyno cMet
# human cMet on cells [4] = target: T1, human cMet on cells; assay: FACS, VHH-His on MKN45 cells
# human cMet on cells [5] = target: T1, human cMet on cells; assay: FACS, VHH-His on MKN45 cells; remark: listed apart in the source
# Human cMet antigen [6] = target: T2, Human cMet antigen; assay: SPR method I, antigen on CM5 chip, VHH-His injected, 1:1 model
# [7] = target: T3, Cynomolgus monkey cMet antigen; assay: as above
# human cMet on cells [8] = target: T1, human cMet on cells; assay: FACS, VHH-His on CHOK1-hucMet cells
# human cMet on cells [9] = target: T1, human cMet on cells; assay: FACS, VHH-His on MKN45 cells; remark: listed apart in the source
# human cMet on cells [10] = target: T1, human cMet on cells; assay: FACS, VHH-His on CHOK1-hucMet cells; remark: listed apart in the source
# human cMet on cells [11] = target: T1, human cMet on cells; assay: FACS, VHH-His on EBC-1 cells
# human cMet on cells [12] = target: T1, human cMet on cells; assay: FACS, VHH-His on EBC-1 cells (cell column empty in this row)
# Human cMet antigen [13] = target: T2, Human cMet antigen; assay: SPR method II, antibody captured on Protein A chip, antigen injected, 1:1 model
# [14] = target: T3, Cynomolgus monkey cMet antigen; assay: as above
# [15] = target: Human EGFR antigen (SPR of Example 4.4) (human, UniProt P00533 25-645); assay: as above
# [16] = target: Cyno EGFR antigen (SPR of Example 4.4) (cynomolgus monkey, UniProt A0A2K5WK39 25-645); assay: as above
# human cMet on cells [17] = target: T1, human cMet on cells; assay: FACS on EBC-1 cells
# T3 sequence (A0A2K5UM36 entry or part of it limits assumed, form in doubt): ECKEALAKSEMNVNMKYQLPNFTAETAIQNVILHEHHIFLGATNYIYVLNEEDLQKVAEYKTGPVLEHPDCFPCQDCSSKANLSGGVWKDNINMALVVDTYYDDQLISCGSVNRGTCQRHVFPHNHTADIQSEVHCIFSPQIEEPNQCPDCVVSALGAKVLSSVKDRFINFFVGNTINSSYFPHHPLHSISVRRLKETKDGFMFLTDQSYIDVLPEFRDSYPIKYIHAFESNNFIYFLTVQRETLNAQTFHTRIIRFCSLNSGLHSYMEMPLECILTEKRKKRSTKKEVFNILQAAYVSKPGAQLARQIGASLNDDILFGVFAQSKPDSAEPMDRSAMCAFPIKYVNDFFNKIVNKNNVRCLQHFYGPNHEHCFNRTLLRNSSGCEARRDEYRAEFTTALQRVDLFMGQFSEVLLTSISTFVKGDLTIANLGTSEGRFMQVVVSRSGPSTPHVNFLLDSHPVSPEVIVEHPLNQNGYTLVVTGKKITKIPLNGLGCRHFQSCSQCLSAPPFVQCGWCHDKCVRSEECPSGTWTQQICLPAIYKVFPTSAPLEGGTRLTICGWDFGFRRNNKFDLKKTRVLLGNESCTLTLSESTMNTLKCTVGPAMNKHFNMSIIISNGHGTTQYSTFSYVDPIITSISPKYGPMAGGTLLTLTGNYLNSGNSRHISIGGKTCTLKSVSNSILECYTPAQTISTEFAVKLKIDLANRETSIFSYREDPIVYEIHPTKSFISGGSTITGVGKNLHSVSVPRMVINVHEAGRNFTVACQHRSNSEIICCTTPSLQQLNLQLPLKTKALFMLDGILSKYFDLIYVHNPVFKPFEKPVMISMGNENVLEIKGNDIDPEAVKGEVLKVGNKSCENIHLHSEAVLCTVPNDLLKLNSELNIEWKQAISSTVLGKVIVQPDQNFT
# T2 sequence (P08581 25-932): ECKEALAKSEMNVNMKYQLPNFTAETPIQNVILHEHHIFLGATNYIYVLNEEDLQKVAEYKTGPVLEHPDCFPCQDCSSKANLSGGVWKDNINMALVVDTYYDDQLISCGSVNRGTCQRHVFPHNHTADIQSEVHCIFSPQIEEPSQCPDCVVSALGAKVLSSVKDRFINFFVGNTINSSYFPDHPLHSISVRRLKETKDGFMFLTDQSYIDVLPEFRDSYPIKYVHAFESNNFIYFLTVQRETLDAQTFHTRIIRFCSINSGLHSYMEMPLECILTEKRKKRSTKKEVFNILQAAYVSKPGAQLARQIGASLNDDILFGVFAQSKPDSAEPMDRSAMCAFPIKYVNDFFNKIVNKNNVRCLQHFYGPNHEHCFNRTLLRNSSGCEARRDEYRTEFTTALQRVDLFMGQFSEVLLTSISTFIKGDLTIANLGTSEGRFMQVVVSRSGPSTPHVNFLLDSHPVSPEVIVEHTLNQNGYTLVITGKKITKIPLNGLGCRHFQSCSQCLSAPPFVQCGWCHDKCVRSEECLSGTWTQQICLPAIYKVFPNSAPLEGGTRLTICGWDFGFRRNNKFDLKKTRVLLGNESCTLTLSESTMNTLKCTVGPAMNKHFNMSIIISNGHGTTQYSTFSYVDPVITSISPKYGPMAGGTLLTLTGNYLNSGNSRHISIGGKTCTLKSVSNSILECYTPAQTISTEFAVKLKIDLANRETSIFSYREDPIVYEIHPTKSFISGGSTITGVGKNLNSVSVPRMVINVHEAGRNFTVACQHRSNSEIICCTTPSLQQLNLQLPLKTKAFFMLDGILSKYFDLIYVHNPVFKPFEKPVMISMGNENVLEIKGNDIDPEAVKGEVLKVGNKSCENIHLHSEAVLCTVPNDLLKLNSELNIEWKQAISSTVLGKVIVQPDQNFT
# T1 sequence (P08581 25-1390): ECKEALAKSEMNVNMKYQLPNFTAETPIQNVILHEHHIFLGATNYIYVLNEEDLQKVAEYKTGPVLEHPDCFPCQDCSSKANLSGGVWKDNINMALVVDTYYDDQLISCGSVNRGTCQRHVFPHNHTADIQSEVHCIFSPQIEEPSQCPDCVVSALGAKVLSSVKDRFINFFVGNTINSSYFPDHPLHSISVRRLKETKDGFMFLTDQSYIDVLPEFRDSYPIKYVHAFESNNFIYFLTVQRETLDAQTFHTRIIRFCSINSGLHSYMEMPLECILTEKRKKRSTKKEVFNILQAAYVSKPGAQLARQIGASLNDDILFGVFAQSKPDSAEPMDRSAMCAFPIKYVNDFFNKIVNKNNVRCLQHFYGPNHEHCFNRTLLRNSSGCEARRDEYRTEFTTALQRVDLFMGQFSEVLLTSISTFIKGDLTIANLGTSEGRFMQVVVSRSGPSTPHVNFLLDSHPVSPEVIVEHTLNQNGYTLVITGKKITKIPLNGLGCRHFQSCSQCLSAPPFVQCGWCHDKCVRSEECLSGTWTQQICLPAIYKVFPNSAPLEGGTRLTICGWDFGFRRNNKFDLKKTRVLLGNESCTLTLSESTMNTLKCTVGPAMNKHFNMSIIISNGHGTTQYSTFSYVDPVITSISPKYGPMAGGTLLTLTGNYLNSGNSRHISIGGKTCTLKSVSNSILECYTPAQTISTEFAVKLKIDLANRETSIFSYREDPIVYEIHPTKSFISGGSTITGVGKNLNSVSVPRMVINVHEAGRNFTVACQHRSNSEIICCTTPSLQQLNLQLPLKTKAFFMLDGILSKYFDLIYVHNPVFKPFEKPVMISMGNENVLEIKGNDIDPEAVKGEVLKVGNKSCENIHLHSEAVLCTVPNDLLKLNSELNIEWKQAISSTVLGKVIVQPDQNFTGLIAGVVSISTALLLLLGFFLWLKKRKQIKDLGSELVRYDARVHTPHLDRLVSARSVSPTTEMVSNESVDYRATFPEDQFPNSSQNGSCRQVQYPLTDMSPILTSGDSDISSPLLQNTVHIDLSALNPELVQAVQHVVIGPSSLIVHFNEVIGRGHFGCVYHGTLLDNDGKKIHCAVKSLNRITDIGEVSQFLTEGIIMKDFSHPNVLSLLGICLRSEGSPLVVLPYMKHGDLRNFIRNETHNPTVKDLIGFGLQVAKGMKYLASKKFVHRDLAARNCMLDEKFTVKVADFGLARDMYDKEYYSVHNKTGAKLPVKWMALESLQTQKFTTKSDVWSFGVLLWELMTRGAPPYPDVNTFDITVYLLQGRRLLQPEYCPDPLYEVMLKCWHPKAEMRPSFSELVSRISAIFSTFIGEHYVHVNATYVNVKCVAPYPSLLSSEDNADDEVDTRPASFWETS
molecule,measurement,setting,value
ABBV399 [reference compound],IC50,EBC-1,0.194 nM
B1,MFI value at the highest concentration,human cMet on cells [1],40600 MFI
same,ratio of MFI value at the highest concentration to that at the lowest concentration,human cMet on cells [1],2.22
same,EC50,Human cMet antigen [2],0.066 nM
same,EC50,[3],0.063 nM
B2,MFI value at the highest concentration,human cMet on cells [1],82200 MFI
same,ratio of MFI value at the highest concentration to that at the lowest concentration,human cMet on cells [1],1.12
same,EC50,Human cMet antigen [2],0.108 nM
same,EC50,[3],0.105 nM
B3,Maximum MFI value,human cMet on cells [4],36700 MFI
B4,Maximum MFI value,human cMet on cells [4],57400 MFI
B5,EC50,human cMet on cells [5],4.11 nM
same,Maximum MFI value,human cMet on cells [5],44700 MFI
B6,Kd,Human cMet antigen [6],0.301 nM
same,koff,Human cMet antigen [6],0.000153 s⁻¹
same,kon,Human cMet antigen [6],509000 M⁻¹ s⁻¹
same,Kd,[7],96 nM
same,koff,[7],0.00439 s⁻¹
same,kon,[7],45800 M⁻¹ s⁻¹
same,EC50,human cMet on cells [8],1.94 nM
same,EC50,human cMet on cells [9],3.76 nM
same,Maximum MFI value,human cMet on cells [9],35600 MFI
same,EC50,human cMet on cells [5],3.76 nM
same,Maximum MFI value,human cMet on cells [5],35600 MFI
same,EC50,human cMet on cells [10],1.01 nM
same,Maximum MFI value,human cMet on cells [10],74200 MFI
B7,EC50,human cMet on cells [8],2.1 nM
B8,EC50,human cMet on cells [11],1.56 nM
same,Maximum MFI value,human cMet on cells [11],291000 MFI
same,Kd,Human cMet antigen [6],16 nM
same,koff,Human cMet antigen [6],0.0029 s⁻¹
same,kon,Human cMet antigen [6],181000 M⁻¹ s⁻¹
same,Kd,[7],70.3 nM
same,koff,[7],0.0072 s⁻¹
same,kon,[7],102000 M⁻¹ s⁻¹
B9,EC50,human cMet on cells [12],2.11 nM
B10,Kd,Human cMet antigen [13],0.681 nM
same,koff,Human cMet antigen [13],7.38e-05 s⁻¹
same,kon,Human cMet antigen [13],108000 M⁻¹ s⁻¹
same,Kd,[14],0.584 nM
same,koff,[14],7.14e-05 s⁻¹
same,kon,[14],122000 M⁻¹ s⁻¹
B11,Kd,[15],11.9 nM
same,koff,[15],0.000392 s⁻¹
same,kon,[15],33000 M⁻¹ s⁻¹
same,Kd,[16],2.05 nM
same,koff,[16],8.04e-05 s⁻¹
same,kon,[16],39200 M⁻¹ s⁻¹
B12,binding result,human cMet on cells [17],binds
B13,EC50,human cMet on cells [5],88.1 nM
same,Maximum MFI value,human cMet on cells [5],56600 MFI
